Results published in patent US20110182903A1, “NOVEL SOLUBLE CD83 POLYPEPTIDES, FORMULATIONS AND METHODS OF USE” (priority 2008, published 2011).
Like-named read-outs stand apart in the source and are kept apart here.

Key:
[1] = target: the molecule itself; experiment: non-reducing SDS-PAGE; self-association through disulfide bonds
[2] = target: the molecule itself; experiment: size-exclusion chromatography and non-reduced SDS-PAGE with NEM; self-association
[3] = system: heterotopic cardiac allograft; experiment: C57BL/6-to-BALB/c mouse heart transplant model (murine heterotopic cardiac allograft); assay type: in vivo; settings: for extension of allograft survival compared to untreated controls / mean survival time of graft: monotherapy; for mean survival time of graft: 100 ug per mouse per day for 8 days, untreated mean 8 days
Protocol: Animal model: C57BL/6-to-BALB/c Mouse Heart Transplant Model
Male adult C57BL/6 (H-2b) were used as donors and BALB/c (H-2d) mice were used as recipients (Jackson Laboratories, Bar Harbor, Mass.). Intra-abdominal heterotopic cardiac transplantation was performed as previously described (Corry et al. (1973) Transplantation 16(4):343-350 and Wang et al. (2007) J Immunol 179(7):4451-4463). In this study, transplant surgery involved transfer of fully MHC-mismatched hearts from C57BL/6 donors to BALB/c recipients, such that the autologous heart as well as the allogenic heart was present in the recipient.
Cardiac transplant recipients were treated as follows: Group I (five recipients) received no treatment. Group 2 (3 recipients) received hCD83ext-m3 monotherapy by i.v. at 100 μg/mouse/day, from −1 to +7 POD. […] Cardiac transplant survival was measured in the number of postoperative days (POD) that the allogenic heart continued to beat.
Cardiac transplant recipients were treated as follows: Group 4 (4 recipients) received hCD83ext-wt (SEQ ID NO:5) monotherapy by i.v. at 100 μg/mouse/day, from the day prior to transplantation until graft rejection.

[4] = Storage stability of purified protein, reduced and non-reduced SDS-PAGE; assay type: physicochemical
Protocol: The purified wild type hCD83ext, when prepared as described in Example 1 and formulated either in the presence or absence of 50% glycerol, degraded when stored at 4° C., perhaps due to an intrinsic instability of this biomolecule. […] Generally, the dimer composition increased monotonically with the sample age, indicating the progressive conversion of monomer to dimer under this storage condition. Note that there were at least two different monomer forms (lane 6, FIG. 6) and three different dimer forms (lanes 3 and 7, FIG. 6) derived from various sample preps.

[5] = Dimerization by size-exclusion chromatography and non-reduced SDS-PAGE with NEM pretreatment; assay type: physicochemical; settings: SEC and non-reduced SDS-PAGE with NEM; FIGS. 20, 21
Description: Using exactly the same fermentation and downstream processing protocols as those for wild-type hCD83ext and CD83m-5, CD83m-3 was produced and purified. […] Purified CD83m-3 was subjected to structural characterization using SDS-PAGE (FIG. 15), CD (FIGS. 16 and 17), and spectrofluometry (FIG. 18) with results similar to wild-type hCD83ext and CD83m-5. Note that a clear and reproducible doublet was observed on non-reduced SDS-PAGE (FIG. 15). Also, note that none of these two bands corresponding to the CD83m-3 doublet appeared to have an identical mobility to the monomer species of CD83m-5, but the upper CD83m-3 band appeared to have an identical mobility to the monomer species of the wild-type hCD83ext (FIG. 19). To avoid potential disulfide bond scrambling during the sample preparation for non-reduced SDS-PAGE, the protocol was modified by pretreatment of the sample with N-Ethylmaleimide (NEM). NEM alkylates free thiol groups on cysteine residues that have not formed disulfide bonds, and thereby prevents subsequent disulfide bonding by that cysteine residue. It appears that the modified protocol using NEM provides a more reliable and consistent method for quantification of CD83 dimers by preventing any potential disulfide bond scrambling and the CD83 monomer is observed as a single band, rather than as a doublet (FIG. 20). […]

[6] = system: TNFα production by LPS/IFN-γ stimulated peripheral blood mononuclear cells (PBMCs)
Protocol: The ability of the wild type and mutant hCD38ext to inhibit TNFα production by LPS/IFN-γ stimulated peripheral blood mononuclear cells (PBMCs) was evaluated in an in vitro assay using PBMCs from cynomologus monkeys. Specifically, cynomologus PBMCs were isolated and pretreated 12 hours with different concentrations (0.5, 5, 25 and 100 μg/ml) of hCD83ext wild type (formulated at pH 4.5 or 5.5), hCD83ext-m3 or hCD83ext-m5 (501-1). hCD83ext-m3 and hCD83ext-m5 were formulated at pH 5.5 or 7.6, respectively. The cells were then activated for 6 hours with LPS (1 μg/ml) plus IFN-γ (100 U/ml) in the presence of Brefeldin A (4 μg/ml) and then intracellularly stained for TNFα using a commercially available Fix/Perm kit. Flow cytometry acquisition and analysis of the amount of TNFα production was evaluated using either myeloid dendritic cells or monocytes. The results are expressed as % of mDC or monocytes producing TNFα and in Mean Fluorescence Units (MFU), which represents the levels of TNFα on a per cell basis.
hCD83ext wild type protein originally formulated at pH 7.6 (data shown FIGS. 26 and 27) was buffer exchanged into a buffer with a pH of 4.5 or 5.5 and re-tested as described above for the ability to inhibit TNFα production by LPS/IFN-γ stimulated cynomologus PBMCs in vitro.

[7] = system: TNFα production by LPS/IFN-γ stimulated human PBMCs; experiment: Inhibition of TNFα production by LPS/IFN-γ stimulated human PBMCs; assay type: cell-based; settings: FIG. 30; four m3 preparations (pH 4.5, 5.5, 7.6) vs wild type ARG-021 in PBS pH 7.6
Description: The improved stability/activity of hCD83ext-m3 as compared to hCD83ext wild type was confirmed in a similar assay using human PBMCs.

[8] = system: kidney allografts from C57BL/6 mouse donors; experiment: Mouse orthotopic kidney transplant model; assay type: in vivo; settings: monotherapy 100 μg/mouse/day i.v., day -1, day 0 and seven POD; untreated MST 31±4.9 days
Protocol: The mouse orthotopic kidney transplant model (see Zhang et al. (2005) Microsurgery 16(2):103-109) was used to assess the ability of hCD83ext-m3 to induce allograft tolerance. BALB/c mice received kidney allografts from C57BL/6 mouse donors. Recipient mice were either untreated (two mice) or received hCD83ext-m3 (3 mice; 100 μg/mouse/day, i.v.) one day prior to transplantation (day −1), the day of transplantation (day 0) and for seven days post operative days (POD). The two untreated mice survived for 28 and 35 days, giving a mean survival time (MST) of 31±4.9 days. The three mice treated with hCD83ext-m3 each survived for more than 100 POD. Accordingly, monotherapy with hCD83ext-m3 leads to long-term allograft acceptance in the mouse orthotopic kidney transplant model.

rat renal allografts = experiment: Rat renal transplant model of chronic rejection (F344 to Lewis); assay type: in vivo; settings: POD 140; with CsA, compared to CsA alone; FIG. 37
Protocol: F344 rats served as renal donors to Lewis rats. […] Transplant recipients were sacrificed on POD 140 and transplanted kidneys were assessed for indications of chronic rejection by histology and immunohistochemistry. Renal histology was scored by an independent pathologist assessing tubular atrophy, glomerular atrophy, interstitial fibrosis, intimal thickness, cell infiltrates and cortical scarring on a scale of 0-4, wherein 0=normal, 1=minimal change, 2=mild change, 3=moderate change and 4=marked change.

[9] = FIG. 26, 0.5, 5, 25 and 100 μg/ml, wild type at pH 4.5 or 5.5, m3 at pH 5.5, m5 at pH 7.6

B1: wild type hCD83ext (human CD83 extracellular domain with N-terminal Gly-Ser-Pro-Gly and C-terminal Ile, purified from E. coli) (receptor)
chain: GSPGTPEVKVACSEDVDLPCTAPWDPQVPYTVSWVKLLEGGEERMETPQEDHLRGQHYHQKGQNGSFDAPNERPYSLKIRNTTSCNSGTYRCTLQDPDGQRNLSGKVILRVTGCPAQRKEETFKKYRAE
notes: It carries four extra N-terminal residues and the first transmembrane residue (Ile); Not glycosylated (made in E. coli); Preparations hold monomer and disulfide-linked dimers and multimers; also called hCD83ext-wt; hCD83ext wild type
binding result [1]: binds

B2: hCD83ext-m5 (hCD83ext with the fifth cysteine, position 114 of SEQ ID NO:5, mutated to serine) (receptor)
chain: GSPGTPEVKVACSEDVDLPCTAPWDPQVPYTVSWVKLLEGGEERMETPQEDHLRGQHYHQKGQNGSFDAPNERPYSLKIRNTTSCNSGTYRCTLQDPDGQRNLSGKVILRVTGSPAQRKEETFKKYRAE
notes: also called CD83m-5; hCD83m-5
binding result [2]: binds

B3: hCD83ext-wt: recombinant human sCD83 (CD83 extracellular domain) purified from E. coli, wild type form, SEQ ID NO:5 (protein)
chain: GSPGTPEVKVACSEDVDLPCTAPWDPQVPYTVSWVKLLEGGEERMETPQEDHLRGQHYHQKGQNGSFDAPNERPYSLKIRNTTSCNSGTYRCTLQDPDGQRNLSGKVILRVTGCPAQRKEETFKKYRAEI
modifications: Synthetic extracellular domain of human CD83 with the addition of Gly-Ser-Pro-Gly at the N-terminus and Ile at the C-terminus
MST ± SD ([3]; Table 8, hCD83ext-wt 100 μg/mouse/day i.v., CsA 15 mg/kg/day s.c.): 15.8 ± 1.0 days | mean survival ([3]; in combination with cyclosporine, glycerol omitted): approximately 14 days | long-term graft survival ([3]; in combination with cyclosporine, stored in 50% glycerol, final glycerol concentration 8%): > 100 days | extension of allograft survival compared to untreated controls [3]: approximately 2 fold | mean survival time of graft [3]: approximately 14 days | degradation on storage ([4]; stored at 4° C., with or without 50% glycerol): degraded | degradation on storage ([4]; stored at -20° C.): completely prevented degradation | dimerization on long-term storage ([4]; stored at -20° C., frozen): dimerization could still occur

B4: hCD83ext-m5: soluble CD83 mutant, fifth cysteine of SEQ ID NO:5 mutated to serine, SEQ ID NO:6 (WO2004/046182) (protein)
chain: GSPGTPEVKVACSEDVDLPCTAPWDPQVPYTVSWVKLLEGGEERMETPQEDHLRGQHYHQKGQNGSFDAPNERPYSLKIRNTTSCNSGTYRCTLQDPDGQRNLSGKVILRVTGSPAQRKEETFKKYRAEI
modifications: Synthetic extracellular domain of human CD83 with the addition of Gly-Ser-Pro-Gly and the N-terminus and Ile at the C-terminus, with Cys to Ser (C2S) mutation at position 114
mean survival time of graft [3]: approximately 14 days | dimerization [5]: significant | ability to inhibit TNFα production (relative activity) [6, 9]: more active than the wild type hCD93ext | ability to inhibit TNFα production (relative activity) ([6]; FIG. 27, proteins formulated at pH 7.6): outperformed two preparations of hCD83ext wild type

B5: hCD83ext-m3: m3 mutant form of human sCD83; SEQ ID NO:7 with Cys at 12, 20, 92, 114 and Ser at 85 (protein)
chain: GSPGTPEVKVAXSEDVDLPXTAPWDPQVPYTVSWVKLLEGGEERMETPQEDHLRGQHYHQKGQNGSFDAPNERPYSLKIRNTTSXNSGTYRXTLQDPDGQRNLSGKVILRVTGXPAQRKEETFKKYRAEI
modifications: Synthetic extracellular domain of human CD83 with the addition of Gly-Ser-Pro-Gly and the N-terminus and Ile at the C-terminus
ability to inhibit TNFα production (relative activity) [7]: outperformed hCD83ext wild type | synergy with CsA and operational tolerance ([3]; 3 doses on days -1 to +1 plus CsA, CsA withdrawn at day 50, data not shown): full synergy with CsA, but incomplete operational tolerance | MST ± SD ([3]; Table 7, hCD83ext-m3 100 μg/mouse/day i.v. -1 to +7 POD, CsA 15 mg/kg/day s.c. daily): 13.7 ± 0.6 days | allograft tolerance after CsA withdrawal ([3]; combination therapy with CsA, CsA withdrawn at day 28, data not shown): does not lead to permanent allograft tolerance | extension of allograft survival compared to untreated controls [3]: approximately 2 fold | mean survival time of graft [3]: approximately 14 days | allograft tolerance after cessation of daily CsA therapy ([3]; plus CsA until POD 50, hCD83ext-m3 100 μg i.v. days -1 to +7, data not shown): complete allograft tolerance | survival of kidney allograft recipients [8]: more than 100 POD | immunohistochemistry grading in renal allografts (IgG, IgM deposits; CD2, CD4, ED-1 infiltration) (rat renal allografts): significantly (p<0.05) improves immunohistochemistry grading | dimerization [5]: absent or minimal | ability to inhibit TNFα production (relative activity) [6, 9]: more active than the m5 mutant
